Experimental data as given in publication PMC3325190 (PLoS Pathogens, 2012).
[ ]: non-standard residue; d: D form. SeMet = C[Se]CC[C@H](N)C(=O)O

T1: AmrZ WT (Pseudomonas aeruginosa PAO1, UniProt G3XCY4 1-108)
T1 sequence: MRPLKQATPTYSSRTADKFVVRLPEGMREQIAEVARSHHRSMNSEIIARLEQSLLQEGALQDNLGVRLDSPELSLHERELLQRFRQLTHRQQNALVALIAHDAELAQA

T2: AmrZ delta42 (Pseudomonas aeruginosa PAO1, UniProt G3XCY4 1-66)
T2 sequence: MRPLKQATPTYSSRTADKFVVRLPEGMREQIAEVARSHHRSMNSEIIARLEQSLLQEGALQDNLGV

B1: Δ42 AmrZ (C-terminal truncation mutant of AmrZ, residues 1–66) (domain or fragment)
chain: [SeMet]RPLKQATPTYSSRTADKFVVRLPEG[SeMet]REQIAEVARSHHRS[SeMet]NSEIIARLEQSLLQEGALQDNLGV
notes: not shown: poly-Histidine, N-terminal, cleaved
B2: WT amrZ1 (dsDNA)
DNA 1: GTACTGGCAAAACGCCGGCACG
DNA 2: CGTGCCGGCGTTTTGCCAGTAC
B3: GTC amrZ1 (dsDNA)
DNA 1: GTACTGTCAAAACGACGGCACG
DNA 2: CGTGCCGTCGTTTTGACAGTAC
B4: m6 algD (dsDNA)
DNA 1: CATTGTCCATTACCAGCCTCCC
DNA 2: GGGAGGCTGGTAATGGACAATG
B5: m7 algD (dsDNA)
DNA 1: CATTGGACATTACCAGCCTCCC
DNA 2: GGGAGGCTGGTAATGTCCAATG
B6: m8 algD (dsDNA)
DNA 1: CATTGGCAATTACCAGCCTCCC
DNA 2: GGGAGGCTGGTAATTGCCAATG
B7: m13 algD (dsDNA)
DNA 1: CATTGGCCATTAACAGCCTCCC
DNA 2: GGGAGGCTGTTAATGGCCAATG
B8: m14 algD (dsDNA)
DNA 1: CATTGGCCATTACAAGCCTCCC
DNA 2: GGGAGGCTTGTAATGGCCAATG
B9: m16 algD (dsDNA)
DNA 1: CATTGGCCATTACCATCCTCCC
DNA 2: GGGAGGATGGTAATGGCCAATG
B10: m17 algD (dsDNA)
DNA 1: CATTGGCCATTACCAGACTCCC
DNA 2: GGGAGTCTGGTAATGGCCAATG
B11: TTC amrZ1 (dsDNA)
DNA 1: GTACTTTCAAAACGAAGGCACG
DNA 2: CGTGCCTTCGTTTTGAAAGTAC
B12: CGCG amrZ1 (dsDNA)
DNA 1: GTACTGGCCGCGCGCCGGCACG
DNA 2: CGTGCCGGCGCGCGGCCAGTAC
B13: TTC/GC amrZ1 (dsDNA)
DNA 1: GTACTTTCCGCGCGAAGGCACG
DNA 2: CGTGCCTTCGCGCGGAAAGTAC
B14: TTTT amrZ1 (dsDNA)
DNA 1: GTACTGGCTTTTCGCCGGCACG
DNA 2: CGTGCCGGCGAAAAGCCAGTAC
B15: AATT amrZ1 (dsDNA)
DNA 1: GTACTGGCAATTCGCCGGCACG
DNA 2: CGTGCCGGCGAATTGCCAGTAC
B16: ATAT amrZ1 (dsDNA)
DNA 1: GTACTGGCATATCGCCGGCACG
DNA 2: CGTGCCGGCGATATGCCAGTAC
B17: WT algD (dsDNA)
DNA 1: CATTGGCCATTACCAGCCTCCC
DNA 2: GGGAGGCTGGTAATGGCCAATG
B18: m5 algD (dsDNA)
DNA 1: CATTTGCCATTACCAGCCTCCC
DNA 2: GGGAGGCTGGTAATGGCAAATG
B19: amrZ1 18 bp crystal oligo (dsDNA)
DNA 1: ACTGGCAAAACGCCGGCA
DNA 2: TGCCGGCGTTTTGCCAGT

Target: the molecule itself
Assay: crystal structure; Se-Met Δ42 AmrZ in complex with 18 bp amrZ1 DNA; hanging drop vapor diffusion at 25°C, 3% PEG8K, 0.1 M MES pH 6.0, 0.15 M NaCl, 2 mM TCEP, 50 mM MgSO4; 3.1 Å; dimer and dimer of dimers seen on the DNA
Conditions: not given

Binder	stoichiometry N
B1	4

target: T1, AmrZ WT; assay: fluorescence anisotropy; conditions: protein: recombinant; tags: N-terminal poly-His with 3C site, cleaved by PreScission; chain copies: 4; blunt

Binder	Kd [nM]
B2	8.41 ± 0.8
B3	82.7 ± 8.6
B4	723 ± 37
B5	530 ± 52
B6	365 ± 30
B7	256 ± 20
B8	216 ± 17
B9	203 ± 17
B10	212 ± 19
B11	109 ± 13
B12	63.4 ± 7.3
B13	2050 ± 180
B14	41.7 ± 5.1
B15	58.6 ± 7.5
B16	39.1 ± 4.6
B17	198 ± 14
B18	164 ± 17

target: T2, AmrZ delta42; assay: X-ray crystal structure (3.1 A); 50 mM MgSO4; SeMet protein; 100 mM Bis-Tris pH 6.5, 150 mM NaCl, 5% glycerol, 100 ug/ml BSA, 100 nM nonspecific DNA, 1 nM 6-FAM 22-mer, 25 C; conditions: protein: recombinant; tags: N-terminal poly-His with 3C site, cleaved by PreScission; chain copies: 4

Binder	binding result
B19	binds
